The results in this text go back to patent publication US8409836B2, “Treatment of cellulosic material and enzymes useful therein” (Roal Oy, priority 2005, dated 2013).

Common to all, as to format: biochemical
Data set [1] can be described thus: Xylanase activity on birch xylan. The settings on record: purified cellobiohydrolases, 50° C., pH 5.0. As to the method: (§1) The specific activity of the preparations was determined using 4-methylumbelliferyl-β-D-lactoside (MUL), 4-methylumbelliferyl-β-D-cellobioside (MUG2) or 4-methylumbelliferyl-β-D-cellotrioside (MUG3) as substrate (van Tilbeurgh et al., 1988) in 0.05 M sodium citrate buffer pH 5 at 50° C. for 10 min. Endoglucanase and xylanase activities were determined by standard procedures (according to IUPAC, 1987) using carboxymethyl cellulose (CMC) and birch glucuronoxylan (Bailey et al., 1992) as substrates. Specific activity against Avicel was calculated on the basis of reducing sugars formed in a 24 h reaction at 50° C., pH 5.0, with 1% substrate and 0.25 μM enzyme dosage. The protein content of the purified enzyme preparations was measured according to Lowry et al., 1951. To characterize the end products of hydrolysis, soluble sugars liberated in 24 h hydrolysis experiment, as described above, were analysed by HPLC (Dionex). Purified cellobiohydrolase I (CBHI/Cel7A) of Trichoderma reesei was used as a reference.
Acremonium thermophilum ALKO4245 was grown as described in Example 1. The culture supernatant was incubated at 70° C. for 24 hours after which, it was concentrated by ultrafiltration. The pure xylanase was obtained by sequential purification with hydrophobic interaction and cation exchange chromatography followed by gel filtration. The xylanase activity was determined using birch xylan as substrate (procedure of IUPAC 1987). Protein was assayed by BioRad Protein Assay Kit (Bio-Rad Laboratories) using bovine serum albumin as standard.
Thermoascus aurantiacus ALKO4242 was grown as described in Example 1. The pure xylanase was obtained by sequential purification with hydrophobic interaction, anion, and cation exchange chromatography followed by gel filtration. The xylanase activity was determined using birch xylan as substrate (procedure of IUPAC 1987). Protein was assayed by BioRad Protein Assay Kit (Bio-Rad Laboratories) using bovine serum albumin as standard.

The nature of data set [2]: Endoglucanase activity on carboxymethyl cellulose. The settings on record: purified cellobiohydrolases, 50° C., pH 5.0. As to the method:
as §1
Acremonium thermophilum ALKO4245 was grown as described in Example 1. The culture supernatant was incubated at 70° C. for 24 hours after which it was concentrated by ultrafiltration. The pure endoglucanase was obtained by sequential purification with hydrophobic interaction and cation exchange chromatography followed by gel filtration. The endoglucanase activity of the fractions collected during purification was determined using carboxymethyl cellulose (CMC) as substrate (procedure of IUPAC 1987). Protein content was measured by BioRad Assay Kit (Bio-Rad Laboratories) using bovine serum albumine as standard.
Thermoascus aurantiacus ALKO4242 was grown as described in Example 1. The pure endoglucanase was obtained by sequential purification with hydrophobic interaction and anion exchange chromatography followed by gel filtration. The endoglucanase activity of the fractions collected during purification was determined using carboxymethyl cellulose (CMC) as substrate (procedure of IUPAC 1987). Protein content was measured by BioRad Assay Kit (Bio-Rad Laboratories) using bovine serum albumine as standard.

Data set [3] in a line: Specific activity on MUG2. As to conditions: purified cellobiohydrolases, 50° C., pH 5.0. As to the method: as §1
Data set [4] in a line: Specific activity on MUG3. The settings on record: purified cellobiohydrolases, 50° C., pH 5.0. As to the method:
as §1

The next data set in a line: Specific activity on MUL. As to conditions: purified cellobiohydrolases, 50° C., pH 5.0. As to the method:
as §1

Data set [5] is described as follows: Specific activity against Avicel. As to conditions: 50° C., pH 5.0, 24 h, 1% substrate, 0.25 μM enzyme. As to the method: as §1
Data set [6] is described as follows: Thermal stability of purified cellobiohydrolases. As to conditions: 0.1% BSA, pH 5.0, 60 min, MUL substrate. As to the method: Thermal stability of the purified cellobiohydrolases was determined at different temperatures. The reaction was performed in the presence of 0.1% BSA at pH 5.0 for 60 min using 4-methylumbelliferyl-β-D-lactoside as substrate. C. thermophilum ALKO4265 CBH/Cel7A and A. thermophilum ALKO4245 CBH/Cel7A were stable up to 65° and 60° C., respectively. The T. reesei reference enzyme (CBHI/Cel7A) retained 100% of activity up to 55° C.

Data set [7] can be described thus: pH optimum of recombinant CBH/Cel7 proteins. The settings on record: McIlvaine buffer, pH range 3.0-8.0, MUL, 50° C., 10 min. As to the method:
The recombinant CBH/Cel7 enzyme preparations were characterized in terms of pH optimum and thermal stability. The pH optimum of the recombinant CBH/Cel7 proteins from Thermoascus aurantiacus, Chaetomium thermophilum, and Acremonium thermophilum were determined in the universal McIlvaine buffer within a pH range of 3.0-8.0 using 4-methylumbelliferyl-β-D-lactoside (MUL) as a substrate (FIG. 3A). The pH optimum for Ct Cel7A and At Cel7A enzymes is at 5.5, above which the activity starts to gradually drop. The pH optimum of the recombinant crude Ta Cel7A is at 5.0 (FIG. 3A). Thermal stability of the recombinant Cel7 enzymes was determined by measuring the MUL activity in universal McIlvaine buffer at the optimum pH with reaction time of 1 h.

Data set [8] is described as follows: Hydrolysis with CBH enzyme mixtures, Avicel. The settings on record: additional enzymes EGII, bG; 48 h, 45° C., pH 5.0. As to the method:
(§2) The performance of the purified recombinant cellobiohydrolases was evaluated in the hydrolysis studies with purified T. reesei enzymes. Hydrolysis was carried out with controlled mixtures of purified enzymes on several pre-treated substrates. […] In addition, pure T. reesei cellulases (purified as described by Suurnäkki et al., 2000) were used in the enzyme mixtures. The cellobiohydrolases used in the experiment were:
(§3) Each CBH/Cel7 to be tested (dosage 14.5 mg/g dry matter of substrate) was used either together with EGII/Cel5A of T. reesei (3.6 mg/g) or with a mixture containing T. reesei EGI/Cel7B (1.8 mg/g), EGII/Cel5A (1.8 mg/g), xylanase pI 9 (Tenkanen et al. 1992) (5000 nkat/g) and acetyl xylan esterase (AXE) (Sundberg and Poutanen, 1991) (250 nkat/g). All mixtures were supplemented with additional β-glucosidase from a commercial enzyme preparation Novozym 188 (176 nkat/g d.w.). Triplicate tubes containing the enzyme mixture and 10 mg (dry matter)/ml of the substrate suspended in 0.05 M sodium acetate were incubated in mixing by magnetic stirring at 45° C. for 48 h. Reference samples with inactivated enzymes and corresponding substrates were also prepared. The release of hydrolysis products was measured as reducing sugars with DNS method using glucose as standard (Table 30).
Crystalline cellulose (Avicel)

The nature of data set [9]: Hydrolysis with CBH enzyme mixtures, spruce. The settings on record: additional enzymes EGII, bG; 48 h, 45° C., pH 5.0. As to the method: as §2, §3
Washed steam pre-treated spruce fibre (impregnation with 3% w/w SO2 for 20 min, followed by steam pre-treatment at 215° C. for 5 min), dry matter 25.9% (SPRUCE).

The nature of data set [10]: Hydrolysis with CBH enzyme mixtures, corn stover. The settings on record: additional enzymes EGII, bG, 48 h, 45° C., pH 5.0. As to the method: as §2, §3
Washed wet oxidized corn stover fibre (WOCS).

A short description of data set [11]: Hydrolysis with CBH enzyme mixtures, willow. As to conditions: additional enzymes EGII, bG, 48 h, 45° C., pH 5.0. As to the method: as §2, §3
Washed steam pre-treated willow fibre (pre-treatment for 14 min at 210° C.), dry matter 23.0% (WILLOW).

B1: Ct Cel7A: cellobiohydrolase of Chaetomium thermophilum ALKO4265, gene Ct cel7A, amino acid SEQ ID NO: 8, with CBD (protein)
chain: MMYKKFAALAALVAGASAQQACSLTAENHPSLTWKRCTSGGSCSTVNGAVTIDANWRWTHTVSGSTNCYTGNQWDTSLCTDGKSCAQTCCVDGADYSSTYGITTSGDSLNLKFVTKHQYGTNVGSRVYLMENDTKYQMFELLGNEFTFDVDVSNLGCGLNGALYFVSMDADGGMSKYSGNKAGAKYGTGYCDAQCPRDLKFINGEANVGNWTPSTNDANAGFGRYGSCCSEMDVWEANNMATAFTPHPCTTVGQSRCEADTCGGTYSSDRYAGVCDPDGCDFNAYRQGDKTFYGKGMTVDTNKKMTVVTQFHKNSAGVLSEIKRFYVQDGKIIANAESKIPGNPGNSITQEYCDAQKVAFSNTDDFNRKGGMAQMSKALAGPMVLVMSVWDDHYANMLWLDSTYPIDQAGAPGAERGACPTTSGVPAEIEAQVPNSNVIFSNIRFGPIGSTVPGLDGSNPGNPTTTVVPPASTSTSRPTSSTSSPVSTPTGQPGGCTTQKWGQCGGIGYTGCTNCVAGTTCTQLNPWYSQCL
In the case of B1, the “Specific activity, Xylan” value in data set [1] is listed as 6.7 nkat/mg. The “Specific activity, CMC” value in data set [2] stood at 5.5 nkat/mg. In addition, the “Specific activity, MUG2” value in [3] is 18.9 nkat/mg. Moreover, the “Specific activity, MUG3” value in data set [4] is on record as 1.5 nkat/mg. Besides, the “Specific activity, MUL” value in “Specific activity on MUL” came out at 54.0 nkat/mg. Moreover, the “Specific activity, Avicel” value in data set [5] is reported as 1.4 nkat/mg. Also, the “Thermal stability: temperature up to which stable / 100% of activity retained” value in data set [6] is “up to 65 °C”. Further, in data set [7], the pH optimum was 5.5. In addition, the “Hydrolysis products as reducing sugars, Avicel” value in data set [8] came out at 6.0 mg/mL. Besides, in data set [9], the “Hydrolysis products as reducing sugars, SPRUCE” value came out at 2.6 mg/mL. The “Hydrolysis products as reducing sugars, WOCS” value in [10] (EGI, XYL, AXE) was found to be 5.6 mg/mL; in data set [10], 3.4 mg/mL. The “Hydrolysis products as reducing sugars, WILLOW” value in data set [11] (EGI, XYL, AXE) is 4.0 mg/mL; in [11] it was 2.6 mg/mL.

B2: Tr Cel7A: purified cellobiohydrolase I (CBHI/Cel7A) of Trichoderma reesei used as a reference (protein, UniProt P62694 18-513, looked up)
Exoglucanase 1: QSACTLQSETHPPLTWQKCSSGGTCTQQTGSVVIDANWRWTHATNSSTNCYDGNTWSSTLCPDNETCAKNCCLDGAAYASTYGVTTSGNSLSIGFVTQSAQKNVGARLYLMASDTTYQEFTLLGNEFSFDVDVSQLPCGLNGALYFVSMDADGGVSKYPTNTAGAKYGTGYCDSQCPRDLKFINGQANVEGWEPSSNNANTGIGGHGSCCSEMDIWEANSISEALTPHPCTTVGQEICEGDGCGGTYSDNRYGGTCDPDGCDWNPYRLGNTSFYGPGSSFTLDTTKKLTVVTQFETSGAINRYYVQNGVTFQQPNAELGSYSGNELNDDYCTAEEAEFGGSSFSDKGGLTQFKKATSGGMVLVMSLWDDYYANMLWLDSTYPTNETSSTPGAVRGSCSTSSGVPAQVESQSPNAKVTFSNIKFGPIGSTGNPSGGNPPGGNRGTTTTRRPATTTGSSPGPTQSHYGQCGGIGYSGPTVCASGTTCQVLNPYYSQCL
B2: the “Specific activity, Xylan” value in data set [1] is listed as 1.3 nkat/mg. The “Specific activity, CMC” value in [2] is recorded as 1.0 nkat/mg. The “Specific activity, MUG2” value in data set [3] is reported as 4.3 nkat/mg. The “Specific activity, MUG3” value in [4] is listed as 0.9 nkat/mg. Besides, the “Specific activity, MUL” value in “Specific activity on MUL” came out at 21.9 nkat/mg. Also, in data set [5], the “Specific activity, Avicel” value came to 0.6 nkat/mg. Further, in data set [6], the “Thermal stability: temperature up to which stable / 100% of activity retained” value was “up to 55 °C”. Further, the “Hydrolysis products as reducing sugars, Avicel” value in data set [8] is 4.7 mg/mL. Also, in data set [9], the “Hydrolysis products as reducing sugars, SPRUCE” value was 2.9 mg/mL. Moreover, the “Hydrolysis products as reducing sugars, WOCS” value turned out to be 6.0 mg/mL in data set [10] (EGI, XYL, AXE) and 2.9 mg/mL in data set [10]. Moreover, the “Hydrolysis products as reducing sugars, WILLOW” value in data set [11] (EGI, XYL, AXE) turned out to be 4.1 mg/mL; in data set [11] it was 2.9 mg/mL.
